Test results: US6544767 (AXYS PHARMACEUTICALS, dated 2003)

Target: T1, mature recombinant human cathepsin O2 (human, UniProt P43235 115-329)
T1 construct: also called parent enzyme; mature enzyme
T1 sequence: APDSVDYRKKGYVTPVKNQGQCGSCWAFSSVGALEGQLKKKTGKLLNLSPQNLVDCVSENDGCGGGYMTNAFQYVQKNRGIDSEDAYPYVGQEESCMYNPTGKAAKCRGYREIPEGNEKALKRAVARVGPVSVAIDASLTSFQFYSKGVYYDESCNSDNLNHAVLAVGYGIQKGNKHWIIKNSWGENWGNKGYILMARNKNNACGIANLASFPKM
Experiment: inhibition of enzyme activity; assay not detailed in Example 3

B1: propart of human cathepsin O2 (expressed separately in the pTrcHis vector, six-histidine metal binding domain) (other)
chain: LYPEEILDTHWELWKKTHRKQYNNKVDEISRRLIWEKNLKYISIHNLEASLGVHTYELAMNHLGDMTSEEVVQKMTGLKVPLSHSRSNDTLYIPEWEGR
notes: Tag removal is not mentioned; also called proregion; not shown: vector-encoded leader of pTrcHis with a series of six histidine residues
  Ki: 0.1 nM
